Test results reported in patent publication US20180291103A1.

Key:
[1] = target: Mouse PDL1-Fc protein (mouse); test: ELISA; mouse PDL1-Fc coated at 0.5 µg/well, control group well (row 'blank'), anti-His detection, 405 nm
[2] = target: PDL1-Fc fusion protein (human PDL1-Fc) (human); test: ELISA; OD on PDL1-Fc divided by OD on Fc protein, control group well (row 'blank')
[3] = target: PDL1-Fc fusion protein (human PDL1-Fc) (human); test: ELISA; PDL1-Fc coated, control group well (row 'blank'), anti-His detection, 405 nm
[4] = target: Fc protein; test: ELISA; Fc protein coated, control group well (row 'blank'), anti-His detection, 405 nm
[5] = target: PDL1-Fc fusion protein (human PDL1-Fc) (human); test: SPR, BIAcore X100; PDL1-Fc on CM5 chip, antibody as analyte, 25 C

PDL1-Fc fusion protein (human PDL1-Fc) (human), sequence (chain, as listed by the source limits assumed): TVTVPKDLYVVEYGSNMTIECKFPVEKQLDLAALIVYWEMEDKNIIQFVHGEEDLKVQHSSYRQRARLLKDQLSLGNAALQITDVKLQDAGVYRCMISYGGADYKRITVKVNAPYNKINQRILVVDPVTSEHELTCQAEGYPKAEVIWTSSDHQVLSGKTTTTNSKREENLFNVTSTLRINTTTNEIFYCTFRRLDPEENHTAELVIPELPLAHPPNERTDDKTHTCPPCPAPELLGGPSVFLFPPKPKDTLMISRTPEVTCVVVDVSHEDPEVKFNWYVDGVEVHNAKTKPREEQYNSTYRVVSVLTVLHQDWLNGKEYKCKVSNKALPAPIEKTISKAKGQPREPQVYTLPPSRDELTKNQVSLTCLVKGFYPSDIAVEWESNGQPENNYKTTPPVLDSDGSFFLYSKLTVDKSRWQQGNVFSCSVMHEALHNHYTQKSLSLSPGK
Mouse PDL1-Fc protein (mouse), sequence (chain, as listed by the source limits assumed): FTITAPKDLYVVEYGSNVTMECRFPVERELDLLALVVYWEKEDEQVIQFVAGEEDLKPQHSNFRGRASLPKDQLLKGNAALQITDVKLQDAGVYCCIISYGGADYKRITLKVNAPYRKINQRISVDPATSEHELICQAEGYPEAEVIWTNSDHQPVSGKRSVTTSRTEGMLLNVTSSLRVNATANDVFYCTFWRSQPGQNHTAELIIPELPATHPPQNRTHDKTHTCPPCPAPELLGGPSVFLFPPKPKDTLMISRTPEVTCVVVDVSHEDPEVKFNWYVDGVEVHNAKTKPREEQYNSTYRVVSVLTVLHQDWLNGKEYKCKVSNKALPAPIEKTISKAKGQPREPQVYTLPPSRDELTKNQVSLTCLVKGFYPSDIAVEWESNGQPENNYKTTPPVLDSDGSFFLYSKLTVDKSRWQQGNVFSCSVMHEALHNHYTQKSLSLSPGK

Substance | OD (against mouse PDL1) [1] | OD (PDL1/Fc) [2] | OD (against PDL1) [3] | OD (against Fc) [4] | Kd [5]
control single domain antibody against other unrelated target (control group of the ELISA; table row 'blank') (VHH) | 0.096 OD | 0.75 | 0.054 OD | 0.072 OD | –
243.55 (anti-PDL1 antibody of Roche) | – | – | – | – | 0.135 nM
